Values quoted from earlier work, collected in PMC3121775.

Molecular target: Harakiri BH3 peptide BH3 (Homo sapiens) (UniProt O00198)
Experiment: fluorescence

Bcl-xL, sequence (Q07817 whole entry): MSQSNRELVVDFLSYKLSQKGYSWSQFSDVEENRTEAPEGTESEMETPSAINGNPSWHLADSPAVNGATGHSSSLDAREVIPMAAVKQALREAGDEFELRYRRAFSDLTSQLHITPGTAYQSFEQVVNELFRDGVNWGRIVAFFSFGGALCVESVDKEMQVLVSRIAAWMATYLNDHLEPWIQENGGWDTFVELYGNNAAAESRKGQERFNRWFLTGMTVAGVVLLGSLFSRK

Question: Which Kd does the source give for Bcl-xL (from UniProt Q07817) here?
Answer: 92 nM
